Assay results published in patent US12291578B2, “Anti-matrix metalloproteinase 7 (MMP-7) inhibitory antibody and uses thereof” (Yeda Research and Development Co. Ltd., priority 2019, dated 2025).
“Also recorded” adds a separate entry of the source.

Legend:
CFPAC-1 cells = experiment: Wound healing assay (scratch assay); type: cell-based, human; settings: 7 hours post treatment, vs control antibody GST
Protocol: Wound Healing Assay (Scratch Assay): The migratory behavior of cells was assayed by means of a wound-healing assay using a culture-insert (ibidi GmbH, Am Klopferspitz 19, Martinsried, Germany) according to the manufacturer's instruction. After 24 h the culture-inserts were removed leaving a cell-free gap (“defined as a wound”) of approx. 500 μm. The migration rate into this “wound area” was documented and measured using Carl Zeiss microscope (DeltaVision Microscopy Imaging Systems—GE Healthcare Life Sciences, USA). The migration rate was determined by percentage area covered by cells. Each analysis was performed in triplicates and was repeated two times.
GSM-192 Fab reduces cell motility in vitro: MMP-7 mediated E-Cadherin cleavage promotes cell migration^19, so it was hypothesized that an effective anti MMP-7 antibody directed to the activated enzyme should be able to impact migration.

[1] = test system: RIP1-Tag2 mice serum (circulating MMP); experiment: Dot blot with RIP1-Tag2 mice serum; type: binding, mouse; settings: serum of RIP1-Tag2 mice with late stage insulinomas, 335 times the protein of pure MMP-7 control
Protocol: (§1) A dot blot was performed by immobilizing 1, 1.5 and 2 μg zymogen and activated MMP-7 recombinant enzyme on nitrocellulose membrane pre wetted with TBST using a vacuum based manifold 96 well dot-blot system (GE 10447900 Minifold dot blot). The blocking was performed for 1 hour at room temperature with 3% BSA in TBST. The membrane was then probed for binding by antibody eluted in the earlier step by incubating overnight. The anti MMP-7 mAb used was at 2 ug/ml concentration in TBST. The membrane after 3 washes in TBST was incubated with goat anti mouse HRP antibody and developed using ECL to determine the selectivity of binding towards catalytic form only.
Serum isolated from RIP1-Tag2 mice with late stage insulinomas were used to determine if anti MMP-7 mAb would be bound and removed by circulating enzyme. […] The total serum protein loaded for this experiment was 335 times the protein concentration used for pure MMP-7 catalytic control.

MMP-7 zymogen = molecular target: T1, MMP-7 zymogen (Homo sapiens, UniProt P09237); experiment: Dot blot, zymogen; type: binding
T1 sequence (P09237 18-267 limits assumed): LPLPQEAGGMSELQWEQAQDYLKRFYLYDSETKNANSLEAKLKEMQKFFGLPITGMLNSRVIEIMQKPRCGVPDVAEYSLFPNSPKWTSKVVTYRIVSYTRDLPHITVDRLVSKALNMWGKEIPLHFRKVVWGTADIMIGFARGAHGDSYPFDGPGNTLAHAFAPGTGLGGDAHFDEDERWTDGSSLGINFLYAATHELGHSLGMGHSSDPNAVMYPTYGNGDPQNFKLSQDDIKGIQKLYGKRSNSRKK
Protocol: as §1

MMP-14 = MMP-14 (Homo sapiens, UniProt P50281); experiment: ELISA binding, cross-reactivity

binding to total serum proteins ([1]; listed as Anti MMP-7mAb): does not bind
binding to total serum proteins ([1]; listed as anti MMP-7 mAb): did not show any binding
crossreactivity to MMP-14 (MMP-14): did not show crossreactivity
B1: GSM-192: monoclonal antibody to MMP-7 binding the catalytic domain, not the zymogen; VL SEQ ID NO: 1, VH SEQ ID NO: 2 (antibody, V domains shown)
VH: EVQLQQSGPELVKPGASVKIPCKASGYTFTDYNMDWMKQSHGKSLEWIGHINPNNGGTFYNQKFKDKATFIVDKSSNTAYMELRSLTSEDTAVYFCARGGGLRRGPFAYWGQGTLVTVS
VL: DIVTQSPASLAVSLGQRATISCRASESFDSYGNTFVHWYQQKPGQPPKLLIYLVSNLESGVPAGFRGRGSRTDFTLTIDPVEADDAATYYCQQNNEDPYTFGGGTKLEIKRA
modifications: GSM-192 Heavy Chain Sequence; GSM-192 Light Chain Sequence
cell migration / rate of wound closure (CFPAC-1 cells): significant reduction in rate of wound closure; also recorded: slowed down cell migration
binding to zymogen form of MMP-7 (MMP-7 zymogen): not the zymogen form; also recorded: did not bind
